Source: article PMC3181075
Read-outs that look alike come from different tables or passages of the source.

How the values were obtained:
[1] = molecular target: human carbonic anhydrase XII, catalytic domain (human); assay: other fluorescence titration
[2] = molecular target: human carbonic anhydrase XII, catalytic domain (human)

Kd [1]: 6 µM
Kd [2]: 3.3 µM
Substance: polylysine (peptide)
